Target: T1, Mec1 (yeast (budding yeast), UniProt P38111 1-2368)
T1 construct: Mec1, yeast orthologue of mammalian ATR; 2,368 amino acids as the introduction says; The Mec1 subunit of m1, for the rows of two subunits; also called Mec1^ATR; yeast orthologue of ATR; source: yeast, overexpressed from pBL904 together with Ddc2, purified as the Mec1·Ddc2 complex (IgG-Sepharose, HRV 3C cleavage)
Assay: SEC; Mec1·Ddc2 on Superose 6 HR 10/30, 0.3 ml/min; 50 mM HEPES-KOH pH 7.4, 200 mM KCl, 10% glycerol, 0.1% Tween 20, 0.01% Nonidet P-40, 1 mM EDTA, 1 mM EGTA, 2 mM DTT; size against Bio-Rad gel filtration standards; peak fractions on SDS-PAGE
Conditions: both partners purified

T1 sequence (P38111 whole entry): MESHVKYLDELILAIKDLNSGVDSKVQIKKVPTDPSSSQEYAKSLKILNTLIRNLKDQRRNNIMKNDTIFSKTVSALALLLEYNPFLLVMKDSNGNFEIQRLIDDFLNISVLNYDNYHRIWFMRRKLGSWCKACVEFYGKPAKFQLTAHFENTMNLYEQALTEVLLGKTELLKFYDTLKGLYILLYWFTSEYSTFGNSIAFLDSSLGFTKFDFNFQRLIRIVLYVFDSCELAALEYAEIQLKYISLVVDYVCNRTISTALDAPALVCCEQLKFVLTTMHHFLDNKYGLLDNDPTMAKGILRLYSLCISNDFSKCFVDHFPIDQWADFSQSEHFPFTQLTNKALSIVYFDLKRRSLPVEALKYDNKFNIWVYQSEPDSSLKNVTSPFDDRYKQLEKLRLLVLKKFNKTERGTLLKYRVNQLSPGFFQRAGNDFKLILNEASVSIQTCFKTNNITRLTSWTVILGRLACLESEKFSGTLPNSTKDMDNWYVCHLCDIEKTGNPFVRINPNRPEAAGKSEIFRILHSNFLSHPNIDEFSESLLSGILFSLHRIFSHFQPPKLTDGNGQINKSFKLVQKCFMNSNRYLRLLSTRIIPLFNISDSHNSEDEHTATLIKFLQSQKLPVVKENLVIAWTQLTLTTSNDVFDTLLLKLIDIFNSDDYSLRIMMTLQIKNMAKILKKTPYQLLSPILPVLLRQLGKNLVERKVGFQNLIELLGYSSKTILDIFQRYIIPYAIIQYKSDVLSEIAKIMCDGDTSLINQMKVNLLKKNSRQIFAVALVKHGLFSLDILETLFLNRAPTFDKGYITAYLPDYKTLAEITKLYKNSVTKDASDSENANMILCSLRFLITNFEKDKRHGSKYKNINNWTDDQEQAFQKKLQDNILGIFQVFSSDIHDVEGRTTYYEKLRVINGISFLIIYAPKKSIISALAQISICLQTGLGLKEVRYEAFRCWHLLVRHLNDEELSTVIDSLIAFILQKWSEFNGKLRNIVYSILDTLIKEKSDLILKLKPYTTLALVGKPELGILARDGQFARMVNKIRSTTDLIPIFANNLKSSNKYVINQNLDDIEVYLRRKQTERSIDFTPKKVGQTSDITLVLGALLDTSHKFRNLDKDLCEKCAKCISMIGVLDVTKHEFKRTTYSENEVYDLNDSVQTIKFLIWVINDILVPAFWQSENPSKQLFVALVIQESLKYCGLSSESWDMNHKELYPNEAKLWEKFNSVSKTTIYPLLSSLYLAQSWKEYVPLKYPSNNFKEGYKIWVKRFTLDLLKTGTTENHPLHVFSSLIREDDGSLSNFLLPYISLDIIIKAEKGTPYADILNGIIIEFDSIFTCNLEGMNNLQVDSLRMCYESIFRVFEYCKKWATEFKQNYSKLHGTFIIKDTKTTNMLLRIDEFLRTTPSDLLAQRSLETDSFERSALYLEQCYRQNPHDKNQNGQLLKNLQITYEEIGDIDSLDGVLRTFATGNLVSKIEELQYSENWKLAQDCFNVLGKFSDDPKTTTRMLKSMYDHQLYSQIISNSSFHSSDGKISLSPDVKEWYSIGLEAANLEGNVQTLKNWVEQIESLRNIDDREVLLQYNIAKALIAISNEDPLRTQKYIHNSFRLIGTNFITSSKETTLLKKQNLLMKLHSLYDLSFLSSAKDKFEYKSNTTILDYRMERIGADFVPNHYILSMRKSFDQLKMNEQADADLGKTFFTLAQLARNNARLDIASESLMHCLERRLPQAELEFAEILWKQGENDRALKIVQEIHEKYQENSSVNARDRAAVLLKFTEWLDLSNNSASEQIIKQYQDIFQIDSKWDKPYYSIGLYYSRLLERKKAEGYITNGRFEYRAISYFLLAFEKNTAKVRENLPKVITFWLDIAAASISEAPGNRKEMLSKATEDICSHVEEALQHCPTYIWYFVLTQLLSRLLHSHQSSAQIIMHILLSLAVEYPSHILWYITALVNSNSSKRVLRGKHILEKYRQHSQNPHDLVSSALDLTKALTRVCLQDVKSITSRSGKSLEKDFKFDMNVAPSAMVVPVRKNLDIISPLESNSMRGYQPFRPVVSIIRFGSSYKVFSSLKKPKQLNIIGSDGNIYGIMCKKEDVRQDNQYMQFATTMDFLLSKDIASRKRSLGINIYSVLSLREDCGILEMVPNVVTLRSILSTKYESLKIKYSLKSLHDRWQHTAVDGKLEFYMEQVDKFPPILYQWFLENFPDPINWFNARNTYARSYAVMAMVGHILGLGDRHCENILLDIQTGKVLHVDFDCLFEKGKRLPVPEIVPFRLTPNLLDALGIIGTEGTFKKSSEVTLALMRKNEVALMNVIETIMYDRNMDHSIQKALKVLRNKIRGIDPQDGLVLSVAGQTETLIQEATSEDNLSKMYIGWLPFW

binding result: binds
B1: Ddc2 (natural protein, yeast (budding yeast), UniProt Q04377 1-747, looked up)
chain: MRRETVGEFSSDDDDDILLELGTRPPRFTQIPPSSAALQTQIPTTLEVTTTTLNNKQSKNDNQLVNQLNKAQGEASMLRDKINFLNIEREKEKNIQAVKVNELQVKHLQELAKLKQELQKLEDEKKFLQMEARGKSKREVITNVKPPSTTLSTNTNTITPDSSSVAIEAKPQSPQSKKRKISDNLLKKNMVPLNPNRIIPDETSLFLESILLHQIIGADLSTIEILNRLKLDYITEFKFKNFVIAKGAPIGKSIVSLLLRCKKTLTLDRFIDTLLEDIAVLIKEISVHPNESKLAVPFLVALMYQIVQFRPSATHNLALKDCFLFICDLIRIYHHVLKVPIHESNMNLHVEPQIFQYELIDYLIISYSFDLLEGILRVLQSHPKQTYMEFFDENILKSFEFVYKLALTISYKPMVNVIFSAVEVVNIITSIILNMDNSSDLKSLISGSWWRDCITRLYALLEKEIKSGDVYNENVDTTTLHMSKYHDFFGLIRNIGDNELGGLISKLIYTDRLQSVPRVISKEDIGMDSDKFTAPIIGYKMEKWLLKLKDEVLNIFENLLMIYGDDATIVNGEMLIHSSKFLSREQALMIERYVGQDSPNLDLRCHLIEHTLTIIYRLWKDHFKQLREEQIKQVESQLIMSLWRFLVCQTETVTANEREMRDHRHLVDSLHDLTIKDQASYYEDAFEDLPEYIEEELKMQLNKRTGRIMQVKYDEKFQEMARTILESKSFDLTTLEEADSLYISMGL
notes: Ddc2 (also called Lcd1 or Pie1), yeast orthologue of ATRIP; The Ddc2 subunit of m1, for the rows of two subunits; also called Lcd1; Pie1; source: yeast, overexpressed from pBL904 together with Mec1, purified as the Mec1·Ddc2 complex (IgG-Sepharose, HRV 3C cleavage)

— PMC4919432, “The Dimeric Architecture of Checkpoint Kinases Mec1^ATR and Tel1^ATM Reveal a Common Structural Organization*” (The Journal of Biological Chemistry, 2016)
